± gives the standard deviation of the averaged measurements.
Test system: ATP
Assay: switch fluorescence ratio, 500 uM ATP over buffer (Cy3 cluster intensity, sum of 5 cycles each) (fold (ratio)); higher = stronger signal-on switching upon ATP binding; sequences stand for … in TCGTCGGCAGCGTCAGATGTGTATAAGAGACAGTTTTTTTTTTTTTTTTTTTTTTTTT…TC
Settings: aptamer strand: ATP DNA aptamer (quencher-CACCTGGGGGAGTATTGCGGAGGAAGG + anchor), 100 nM annealed; ATP concentration: 500 uM
Summary of the method: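 Exposure to 500 uM ATP lasted 15 min at 22 °C before imaging, and a selection-buffer image was taken beforehand, for Cy3-labelled switching-strand clusters on a modified Illumina MiSeq flow-cell annealed to 100 nM quencher-labelled ATP aptamer. Five buffer/ATP cycles were run with NaOH stripping and re-annealing between them. The fluorescence ratio per cluster is summed target-cycle over summed buffer-cycle Cy3 intensity, averaged per switch-domain sequence. Clusters outside 100-1000 RFU were excluded.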

Row | Sequence | switch fluorescence ratio
1 | GGATAAGAAT | 1.02 ± 0.052
2 | AGGCAGAGTA | 0.992 ± 0.038
3 | TTTTTGGTGA | 0.984 ± 0.013
4 | GGAACGGGCT | 1 ± 0.021
5 | TTTGTGTTCT | 0.9786 ± 0.0048
6 | GAGATAAGCT | 1.04 ± 0.022
7 | TGTTGTAAGT | 0.984 ± 0.026
8 | GTGAGGGTGA | 1 ± 0.011
9 | GAGTAAGGGT | 0.99 ± 0.024
10 | GCTTCTGCCT | 1 ± 0.013
11 | GAACTTCTGG | 0.985 ± 0.038
12 | ATGCTTTGGG | 1.036 ± 0.0061
13 | GAAATATCAT | 0.971 ± 0.018
14 | TTTGTGTGTA | 0.9846 ± 0.0097
15 | ATAGTTGTGA | 0.987 ± 0.024
16 | TTAGGATTAA | 1.02 ± 0.063
17 | CTTGTAAGGT | 0.976 ± 0.022

— the supplement of paper PMC10126150
